Experimental findings from a protein production outcome set (Wang et al. 2014) are described below.

The data set can be described thus: label from the status in PepcDB records.
Turning to “MLTANIQAASSTRRYSDYVTRSWSHALPIGRKRINLDAIAQLAGERDIVGLQESDPGSLRSGFTNQTCYLAQRAGFHYWSHQPNRRMAGVASSANGLLSRLKPRQIHNHALPGRIPGRGVLLAKFGNGGFDSLVVAVVHLSLGVRSRMAQLVFIADLLAEYPNTILMGDFNCRADCSEMQVLYRRTRLQPPGVVIPTFPSWRPERAIDHILVSEGFYICKTEAVPAAFSDHLAVSMDLVIPQRILRLEHHHHHH”, the protein production entry is “failed”. In the case of “MNNVFGLDIGTRNVVGTVGYQTDDKEFVVTAQYVREHETRAMLDGQIHDIGRVAKTIKEVKDELEKQTGQPLEEVCIAAAGRVLKTVTTHVEYEYAQESVVTGEDVHTLDLLGIEKAQEALKEVNDTSYKFYCVGYSTVKFFLNDEVFISLEGHKANKIGEDIIVTFLPEDVVDGLYAAVGQAGLSVANMTLEPIAAINVAIPENYRMLNIALVDVGAGTSDISITRDGSIIAYGMIPHAGDELTEVIVQHFLVDFNMAESIKLQSTTSDTVTYKDIMSIEHTIPAQDVWDVAAPVVDNIAQEVSAKIRELNGDKTVSACFVVGGGGKIHGFTEKLAEDLDLPEERVALRGEEVLGDVTFEQEDIKKDPLLVTPIGICLNYYDQRNNFIMVRFNGERIKLYDNNRLTIVDAALQAGFPNDELFPKRGTPINFTVNGVARLVRGEAGEGAVVTMNGKPASINTPLEPNSEIIIEPSTAGEAAVYKISQLDEYNHSVITFIINGRRVSCPRFVQVNGELEPEDYSIRENDVIETRNYYTVRQIAQFMDLVIDTDQMIFVNNEEAGLDTLVYENFSVEWKTDEYGVARIDNNTYNDTQESDTDEASVLAEQDANSTESDNTVARTSEQMMNQVLDELHDDFAKEAEASAVPENELPENELPKNDIQEEIHEEDSSKNTVTVIVNGEPVELSGKDTYIFVDIFTHISFDLQAGKGRAIATVINGRDARFSEELHEGDKIELYWKEN”, the protein production entry is given as “failed”. Under “MVKIAASILACDLARLADEVKRVEEHVDMIHFDVMDGHFVPNISFGLPVLKALRKETKLPISVHLMITNPEDYIDRFIEEGADMVAIHYESTFHLHRLVHRVKDLGARAFVAINPHTPINLLSEIITDVDGVLVMSVNPGFSGQRFIARSLEKIRNLRKMVKELGLETEIMVDGGVNEENASILVKNGATILVMGYGIFRNDNYVELIKSIKQEREEFAD” stands “not failed”; under “MFRRPRLRALSALVLAALTLPAVAQQVLIRGATVHTATSQGTLRNTDVLVQGGVIRAIGTGLAVPTHGRVVEAKGRPLTPALFGGITEIGIEEVSGEAATVDSGVKLTEQPMRPEFDVTLAYNPDSVLIPVARVEGIGFTALGATTSGAFIAGQGGIVRLDGGPDPVGPHALFVRLGAAASDLTGSSRAAQWMLLDQLVAEARGRVPADSPHALLTPVGRSVLANYLAGRGRIVVQVERAADIRQLLRWAQREKVRIAIAGGTEAWKLAPQLAQAKVPVLVDALADLPSTFDQIGATLENAARLRAAGVEVSFTQSGDASHNARKLRQLAGNAVANGLPWESGLAGLTRVPAEIFGVGDRIGSIAVGKQADLVLWDGDPLDVAHYAEQVWMGGRDMPMRSRQTDLRDRYLQQAGPLPRAYQR”, “failed”; under “MITTTIFPGRYVQGAGAINILEEELSRFGERAFVVIDDFVDKNVLGENFFSSFTKVRVNKQIFGGECSDEEIERLSGLVEEETDVVVGIGGGKTLDTAKAVAYKLKKPVVIVPTIASTDAPCSALSVIYTPNGEFKRYLFLPRNPDVVLVDTEIVAKAPARFLVAGMGDALATWFEAESCKQKYAPNMTGRLGSMTAYALARLCYETLLEYGVLAKRSVEEKSVTPALEKIVEANTLLSGLGFESGGLAAAHAIHNGLTVLENTHKYLHGEKVAIGVLASLFLTDKPRKMIEEVYSFCEEVGLPTTLAEIGLDGVSDEDLMKVAEKACDKNETIHNEPQPVTSKDVFFALKAADRYGRMRKNLT”, “not failed”. For the sequence “MDWTTLFFSFRGRINRAKYWLVGLIYVAAWMVFTVLAITWLGGVDPDQLFRFAGGAILIWLIAIALGLAGTWSGLATGVKRLHDRDKSGWWILLFWFGPSLLGGSNQTMEDSPVSLVLALIGLGIAIWGFVELGCLRGTPGPNQYGPDPLEPQGTLT”, the protein production result is “failed”.

For the sequence “MIDLNEALAKDRWIGRLASHLDGFEALLDGQGYAKTTVQQKIKLLAGFSAWVERQDVPLSLLGEEDADLFLTELGLRPRRGDAWTIRQLVRYLRDTGGVPVLLPEVDTSAKGKLIDAFGEFLRKERGLSASTLTNYLPIIRGFLDEQFGGKDPGFDHLRVGDVHRFIVRRAQAGSLGRAKLAVTALRSFLRFLQQRGLLATDLAVAVPGIAGWRLAHLPKALRAEQVERLLASCDRRTPAGRRDYAVLMLLARLGLRGGEVSALTLDDLDWDCGEIVVHGKGQRLARLPLPADVGAALVDYLRQDRPACSTRRVFIRTRAPRRGFVSQSTICCIVRRALKRAGLTPAFKGAHLLRHSLATDLLRRGASLVEIGQLLRHSQPNTTQIYAKVDIAALRAIALPWPGVAS”, the protein production result is “failed”.

For “MTLKGTAERWGWMSQALHWLIAVLILGLGIGGLIMGKLPKTPNYFWVYTAHKSIGISVLALAVLRLFWRLYAGAPKPIAGTPVWQERVANATHIMLYVLIFTIPLAGWLYDSARGLRTFYWFGLFEMPALVSPNETIRGVALEIHKLSFWALIGLVVLHAGAAFHHHLIQRDATLARMLPRNWFSSKS”, the protein production result is “failed”. The value for “MAAQAAAAAQAAAAAQAAAAQAAQAEAAESWYLALLGFAEHFRTSSPPKIRLCVHCLQAVFPFKPPQRIEARTHLQLGSVLYHHTKNSEQARSHLEKAWLISQQIPQFEDVKFEAASLLSELYCQENSVDAAKPLLRKAIQISQQTPYWHCRLLFQLAQLHTLEKDLVSACDLLGVGAEYARVVGSEYTRALFLLSKGMLLLMERKLQEVHPLLTLCGQIVENWQGNPIQKESLRVFFLVLQVTHYLDAGQVKSVKPCLKQLQQCIQTISTLHDDEILPSNPADLFHWLPKEHMCVLVYLVTVMHSMQAGYLEKAQKYTDKALMRLEKLKMLDCSPILSSFQVILLEHIIMCRLVTGHKATALQEISQVCQLCQQSPRLFSNHAAQLHTLLGLYCVSVNCMDNAEAQFTTALRLTNHQELWAFIVTNLASVYIREGNRHQELYSLLERINPDHSFPVSSHCLRAAAFYVRGLFSFFQGRYNEAKRFLRETLKMSNAEDLNRLTACSLVLLGHIFYVLGNHRESNNMVVPAMQLASKIPDMSVQLWSSALLRDLNKACGNAMDAHEAAQMHQNFSQQLLQDHIEACSLPEHNLITWTDGPPPVQFQAQNGPNTSLASLL” was “failed”; that for “SLDDDDYPAYTMGRAAAILGTTPAFLRALGDARLITPLRSEGGHRRYSRYQLRIAARARELVDQGTPVEAACRIIILEDQLEDALRLNEEMRRSSDQPTA” was “failed”. Under “MTTAQMSVYFFLQAAAILLVCRLVGMLAKRLGQPQVVGEMIAGVMLGPSLFGLLAPGAQAALFPKQTMDVLYVFAQFGVGMYMFLVGTDFRSDHFRARYRSAMSVSLAGIAVPFLLAFAMCPWLINVEGLFSEKAKLMEASLFLGAAIAITAFPMLARIIHERGLATSPLGTLALTAGAFDDASAWCILAVVLASFGGSWGSAYLAIGGGIGYAVFMIFVGRHLLKRLADHVVPGQPLSNSVLAVVLILFCVSAWAMDAIGIHAVFGGFLLGVCLPRGALTEKLREMLQPFVVVLLLPMFFTYSGLKTQLSVLLQPQIMLAGVAILAASFIGKGVACWAAARTTGENNRDAMAIGALMNARGLMELIIINIGLQAGVIEQGLFSVLVLMAILSTLMATPLFNWIMRRHAHVSDAVPSLQSR” stands “failed”.
